Source: patent publication US20240238445A1, “INHIBITORS AND USES THEREOF” (NEURACLE SCIENCE CO., LTD., priority 2021, published 2024)

B1: FB-20[N1] (peptide)
peptide: GNTYFTTVTVETLETQPGEE
B2: FB-20[N2] (peptide)
peptide: GYNYFTTVTVETLETQPGEE
B3: FB-20[N3] (peptide)
peptide: GYTNFTTVTVETLETQPGEE
B4: FB-20[N4] (peptide)
peptide: GYTYNTTVTVETLETQPGEE
B5: FB-20[N5] (peptide)
peptide: GYTYFNTVTVETLETQPGEE
B6: FB-20[N6] (peptide)
peptide: GYTYFTNVTVETLETQPGEE
B7: FB-20[N7] (peptide)
peptide: GYTYFTTNTVETLETQPGEE
B8: FB-20[N8] (peptide)
peptide: GYTYFTTVNVETLETQPGEE
B9: FB-20[N9] (peptide)
peptide: GYTYFTTVTNETLETQPGEE
B10: FB-20[N10] (peptide)
peptide: GYTYFTTVTVNTLETQPGEE
B11: FB-20[N11] (peptide)
peptide: GYTYFTTVTVENLETQPGEE
B12: FB-20[A1] (peptide)
peptide: GATYFTTVTVETLETQPGEE
B13: FB-20[A2] (peptide)
peptide: GYAYFTTVTVETLETQPGEE
B14: FB-20[A3] (peptide)
peptide: GYTAFTTVTVETLETQPGEE
B15: FB-20[A4] (peptide)
peptide: GYTYATTVTVETLETQPGEE
B16: FB-20[A5] (peptide)
peptide: GYTYFATVTVETLETQPGEE
B17: FB-20[A6] (peptide)
peptide: GYTYFTAVTVETLETQPGEE
B18: FB-20[A7] (peptide)
peptide: GYTYFTTATVETLETQPGEE
B19: FB-20[A8] (peptide)
peptide: GYTYFTTVAVETLETQPGEE
B20: FB-20[A9] (peptide)
peptide: GYTYFTTVTAETLETQPGEE
B21: FB-20[A10] (peptide)
peptide: GYTYFTTVTVATLETQPGEE
B22: FB-20[A11] (peptide)
peptide: GYTYFTTVTVEALETQPGEE

Experiments:
[1] = molecular target: binding of FAM19A5 protein to LRRC4B (amino acids 453-576)-hFc (Homo sapiens, UniProt Q7Z5A7); assay: Competitive inhibition assay, plate coated with LRRC4B (amino acids 453-576)-hFc, peptides at 20 nM; conditions: 20 nM peptide, FAM19A5 1 ng/mL
Text: (§1) Next, to assess whether polypeptides comprising the binding domains of LRRC4 or LRRC4C proteins can have similar inhibitory effects on LRRC4B protein binding, the following synthetic peptides were constructed: (1) FBC4-23 (contains the binding domain of the LRRC4 protein, i.e., YSFFTTVTVETTE); and (2) FBC4C-23 (contains the binding domain of the LRRC4C protein, i.e., FSYFSTVTVETME). Then, the ability of the peptides to inhibit the binding of LRRC4 protein family members to FAM19A5 protein was assessed using a competitive inhibition assay. Briefly, plates were coated with 100 nM of either LRRC4B protein fragment #1 (amino acids 36-576 of SEQ ID NO: 2; SEQ ID NO: 5) or LRRC4B protein fragment #2 (amino acids 453-576 of SEQ ID NO: 2; SEQ ID NO: 7). Then, recombinant FAM19A5 protein (5 ng/ml for plates coated with LRRC4B fragment #1; and 1 ng/mL for plates coated with LRRC4B fragment #2) was added to the plates in combination with 20 nM of the FBC4-23, FBC4C-23, and FB-20 peptides. The plates were incubated at 37° C. and then, the amount of FAM19A5 protein bound to the coated LRRC4B protein fragments was assessed using HRP-conjugated anti-FAM19A5 (1-65) antibody.
(§2) Next, to determine the minimal sequence required to inhibit the interaction of FAM19A5 and members of the LRRC4 protein family, ten FB-20 peptide variants were constructed by serially deleting one or more amino acids from the N-terminus or C-terminus of the FB-20 peptide. Then, a competitive inhibition assay was used to assess the ability of the different FB-20 peptide variants to inhibit the interaction between FAM19A5 and LRRC4B protein. Again, plates were coated with 100 nM of either LRRC4B protein fragment #1 (amino acids 36-576 of SEQ ID NO: 2; SEQ ID NO: 5) or LRRC4B protein fragment #2 (amino acids 453-576 of SEQ ID NO: 2; SEQ ID NO: 7). Then, recombinant FAM19A5 protein (5 ng/ml for plates coated with LRRC4B fragment #1; and 1 ng/mL for plates coated with LRRC4B fragment #2) was added to the plates in combination with 20 nM of the different peptides described above. After incubating the plates at 37° C., the amount of FAM19A5 protein bound to the coated LRRC4B protein fragments was assessed using HRP-conjugated anti-FAM19A5 (1-65) antibody.
To identify the critical amino acid residues, multiple FB-20 peptide mutants were constructed, in which the individual residues of the core binding domain (i.e., YTYFTTVTVETLE; SEQ ID NO: 15) were substituted with alanine (A) or asparagine (N). Then, the ability of these FB-20 peptide mutants to inhibit the interaction between LRRC4B and FAM19A5 proteins was assessed, as described in Examples 3 and 4.

[2] = molecular target: binding of FAM19A5 protein to full-length ectodomain of the LRRC4B protein (amino acids 36-576 of SEQ ID NO: 2) (Homo sapiens, UniProt Q7Z5A7); assay: Competitive inhibition assay, plate coated with full-length ectodomain of LRRC4B (amino acids 36-576); conditions: 20 nM peptide; for inhibition of interaction between FAM19A5 and the coated LRRC4B protein fragments (in words): statement covers both coats, LRRC4B (36-576) and LRRC4B (453-576); for Inhibition rate (%) LRRC4B (amino acids 36-576)-hFc: FAM19A5 5 ng/ml
Protocol: Next, to further assess the role that the binding domain of the LRRC4B protein has on the interaction between FAM19A5 protein and members of the LRRC4 protein family, a competitive inhibition assay was used to determine whether different LRRC4B deletion constructs from Example 2 could inhibit the binding of FAM19A5 to the full-length ectodomain of the LRRC4B protein (i.e., amino acids 36-576 of SEQ ID NO: 2; SEQ ID NO: 5). Briefly, 100 nM of the full-length ectodomain of the LRRC4B protein was used to coat a plate, and then recombinant FAM19A5 protein (5 ng/mL) was added to the plate in combination with the following LRRC4B deletion constructs (increasing concentrations): (1) LRRC4B (453-576) (i.e., construct #11 in Table 6); (2) LRRC4B (453-576) mutant (comprises alanine substitutions at positions 488 and 489 of SEQ ID NO: 2; SEQ ID NO: 16); (3) LRRC4B (484-576) (i.e., construct #12 in Table 6); (4) LRRC4B (482-576); (5) LRRC4B (482-497); and (6) LRRC4B (498-576). The plates were incubated at 37° C., and then, the amount of FAM19A5 bound to the coated LRRC4B ectodomain protein was measured using HRP-conjugated anti-FAM19A5 (1-65) antibody.
As described in Example 3, there appeared to be much similarity in the binding domains of the different members of the LRRC4 family. […] Then, recombinant FAM19A5 protein (5 ng/mL) was added in combination with one of the following: (i) LRRC4B (484-576) protein fragment, (ii) LRRC4B (453-576, AA) protein fragment, and (iii) synthetic FB-20 peptide. The plates were incubated at 37° C., and then, the amount of FAM19A5 protein bound to the coated LRRC4, LRRC4B, or LRRC4C proteins was measured using anti-FAM19A5 (1-65) antibody.
as §1
as §2, with “antibody. […]” for “antibody.”

[3] = molecular target: T1, FAM19A5 protein (Homo sapiens, UniProt Q7Z5A7); assay: competitive inhibition ELISA; competitor: coated LRRC4B(36-576)-hFc
[4] = molecular target: T1, FAM19A5 protein; assay: competitive inhibition ELISA; competitor: coated LRRC4B(453-576)-hFc

Sequence of binding of FAM19A5 protein to full-length ectodomain of the LRRC4B protein (amino acids 36-576 of SEQ ID NO: 2) (Q7Z5A7 44-132): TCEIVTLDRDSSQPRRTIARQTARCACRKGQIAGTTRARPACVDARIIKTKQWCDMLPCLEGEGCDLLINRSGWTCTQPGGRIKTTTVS
Sequence of binding of FAM19A5 protein to LRRC4B (amino acids 453-576)-hFc (Q7Z5A7 44-132): as above

Row | Molecule | Inhibition rate (%) [3] | Inhibition rate (%) [4] | also measured
1 | KNYTYFTTVTNKETQ [FB-m8dC] |  |  | Inhibition rate (%) LRRC4B (amino acids 453-576)-hFc ([1]; Table 9, deletion variants): −0.9%; inhibition of interaction between FAM19A5 and the coated LRRC4B protein fragments (in words) [2]: failed to significantly inhibit; Inhibition rate (%) LRRC4B (amino acids 36-576)-hFc ([2]; Table 9, deletion variants): 5.1%
2 | KNYTYFTTVTVENKETQ [FB-m10dC] |  |  | Inhibition rate (%) LRRC4B (amino acids 453-576)-hFc ([1]; Table 9, deletion variants): 21.9%; Inhibition rate (%) LRRC4B (amino acids 36-576)-hFc ([2]; Table 9, deletion variants): 62.0%
3 | KNYTYFTTVTVETNKETQ [FB-m11dC] |  |  | Inhibition rate (%) LRRC4B (amino acids 453-576)-hFc ([1]; Table 9, deletion variants): 30.4%; inhibition of interaction between FAM19A5 and the coated LRRC4B protein fragments (in words) [2]: substantially inhibited the interaction; Inhibition rate (%) LRRC4B (amino acids 36-576)-hFc ([2]; Table 9, deletion variants): 65.0%
4 | KNYTYFTTVTVNKETQ [FB-m9dC] |  |  | Inhibition rate (%) LRRC4B (amino acids 453-576)-hFc ([1]; Table 9, deletion variants): 2.7%; inhibition of interaction between FAM19A5 and the coated LRRC4B protein fragments (in words) [2]: failed to significantly inhibit; Inhibition rate (%) LRRC4B (amino acids 36-576)-hFc ([2]; Table 9, deletion variants): 16.8%
5 | NFSYFSTVTVETMEPSQDERTTR [FBC4C-23] |  |  | Inhibition rate (%) LRRC4B (amino acids 453-576)-hFc ([1]; Table 8): 40.4%; inhibition of interaction between FAM19A5 and the coated LRRC4B protein fragments (in words) [2]: significantly decreased the interaction; Inhibition rate (%) LRRC4B (amino acids 36-576)-hFc ([2]; Table 8): 65.7%
6 | NYSFFTTVTVETTEISPEDTTRK [FBC4-23] |  |  | Inhibition rate (%) LRRC4B (amino acids 453-576)-hFc ([1]; Table 8): 40.4%; inhibition of interaction between FAM19A5 and the coated LRRC4B protein fragments (in words) [2]: significantly decreased the interaction; Inhibition rate (%) LRRC4B (amino acids 36-576)-hFc ([2]; Table 8): 64.1%
7 | B1 | 11.9% | 3.1% | 
8 | B2 | -0.7% | -2% | 
9 | B3 | -5% | 4% | 
10 | B4 | -1.3% | 2.5% | 
11 | B5 | 56.1% | 30.5% | 
12 | B6 | -11.4% | -0.4% | 
13 | B7 | 24.5% | 8.3% | 
14 | B8 | 2.9% | -2.4% | 
15 | B9 | 17.5% | 6.5% | 
16 | B10 | 27% | 10.8% | 
17 | B11 | 74.1% | 55.6% | 
18 | B12 | 17.2% | 3.6% | 
19 | B13 | 1% | -0.4% | 
20 | B14 | 5.9% | 0% | 
21 | B15 | 2.7% | 1.5% | 
22 | B16 | 53.4% | 22.2% | 
23 | B17 | 17.9% | 11% | 
24 | B18 | 26.8% | 7.9% | 
25 | B19 | 3.9% | -0.4% | 
26 | B20 | 21.5% | 3.8% | 
27 | B21 | 19.6% | 6.4% | 
28 | B22 | 73.4% | 50.3% | 
